Data reported in patent publication CN116745314A (VIR BIOTECHNOLOGY CO LTD, dated 2023).

Molecular target: spike glycoprotein of live SARS-CoV-2 (isolate USA-WA1/2020) (SARS-CoV-2, UniProt P0DTC2 14-1273)
Assay: cell-based or functional assay

B1: S2E12 (antibody, V domains shown)
VH: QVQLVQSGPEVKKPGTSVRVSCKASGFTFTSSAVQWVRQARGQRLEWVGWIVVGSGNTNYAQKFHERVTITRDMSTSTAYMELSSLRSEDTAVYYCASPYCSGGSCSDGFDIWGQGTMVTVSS
VL: DIVLTQTPGTLSLSPGERATLSCRASQSVSSSYLAWYQQKPGQAPRLLIYGASSRATGIPDRFSGSGSGTDFTLTISRLEPEDFAVYYCQQYVGLTGWTFGQGTKVEIK
- EC50 (live SARS-CoV-2 neutralisation): 5 ng/mL
- IC50 (live SARS-CoV-2 neutralisation): 5.41 ng/mL
